In the supplement of paper PMC7125110:
± gives the standard error. For some assays here: Variants at the floor of the assay were thinned out.

B1: glmS ribozyme (parent)
chain: AUAAAAGCGCCAGAACUACAGAAAUGUAGUUGACGAGGAGGAGGUUUAUCGAAUUUUCGGCGGAUGCCUCCAAA

Experiments:
Conditions in all cases: with glucosamine-6-phosphate
glucosamine-6-phosphate [1] = variants of: B1; experiment: kcat; higher = faster cleavage; RNA array
Outline: (§1)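 Barcoded ribozyme variants, transcribed in situ by E. coli RNA polymerase on sequenced MiSeq chips, were followed via a hybridised Cy3 probe at 37 °C. Glucosamine-6-phosphate ranged from 40 μM to 10 mM in HEPES/KCl/Mg(OAc)2 buffer. kobs came from decay fits to per-tile medians, and kcat and KM from weighted Michaelis–Menten fits.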

glucosamine-6-phosphate [2] = variants of: B1; experiment: self-cleavage kobs at 40 uM GlcN6P; higher = faster cleavage; RNA array
Outline: as §1

glucosamine-6-phosphate [3] = variants of: B1; experiment: self-cleavage kobs at 160 uM GlcN6P; higher = faster cleavage; RNA array
Outline: as §1

glucosamine-6-phosphate [4] = variants of: B1; experiment: self-cleavage kobs at 640 uM GlcN6P; higher = faster cleavage; RNA array
Outline: as §1

glucosamine-6-phosphate [5] = variants of: B1; experiment: self-cleavage kobs at 2500 uM GlcN6P; higher = faster cleavage; RNA array
Outline: as §1

glucosamine-6-phosphate [6] = variants of: B1; experiment: self-cleavage kobs at 10000 uM GlcN6P; higher = faster cleavage; RNA array
Outline: as §1

glucosamine-6-phosphate [7] = variants of: B1; experiment: KM; higher = weaker cofactor use; RNA array
Outline: as §1

Variant | kcat (glucosamine-6-phosphate [1]) | self-cleavage kobs at 40 uM GlcN6P (glucosamine-6-phosphate [2]) | self-cleavage kobs at 160 uM GlcN6P (glucosamine-6-phosphate [3]) | self-cleavage kobs at 640 uM GlcN6P (glucosamine-6-phosphate [4]) | self-cleavage kobs at 2500 uM GlcN6P (glucosamine-6-phosphate [5]) | self-cleavage kobs at 10000 uM GlcN6P (glucosamine-6-phosphate [6]) | KM (glucosamine-6-phosphate [7])
U56A G66A | 0.00503 ± 0.0023 s⁻¹ | 0.000167 ± 1.7e-05 s⁻¹ | 0.00039 ± 6.4e-05 s⁻¹ | 0.00117 ± 0.00021 s⁻¹ | 0.00253 ± 0.00043 s⁻¹ | 0.00718 ± 0.0011 s⁻¹ | 
U57C C67G | 2.59e-05 ± 3.7e-06 s⁻¹ | < 1e-05 s⁻¹ |  |  | 3.12e-05 ± 1.1e-05 s⁻¹ | 2.21e-05 ± 8.5e-06 s⁻¹ | 
U54C U57A | 0.000407 ± 0.00018 s⁻¹ |  |  | 7.93e-05 ± 1.9e-05 s⁻¹ | 0.000112 ± 2.5e-05 s⁻¹ | 0.000297 ± 4.3e-05 s⁻¹ | 
U54C U57G | 0.000492 ± 1.5e-05 s⁻¹ |  |  |  |  | 6.43e-05 ± 1.1e-05 s⁻¹ | 
U54C G66A | 0.011 ± 0.0023 s⁻¹ | 0.000397 ± 5.3e-05 s⁻¹ | 0.00112 ± 0.0004 s⁻¹ | 0.00522 ± 0.0011 s⁻¹ | 0.00593 ± 0.0014 s⁻¹ | 0.0118 ± 0.0022 s⁻¹ | 1100 ± 320 µM
U57G U69C | 1.77e-05 ± 7.2e-06 s⁻¹ |  |  |  |  |  | 
U55C C71A | 0.000398 ± 3.4e-05 s⁻¹ |  |  | 5.32e-05 ± 6.9e-06 s⁻¹ | 0.000174 ± 1.9e-05 s⁻¹ | 0.000283 ± 2.2e-05 s⁻¹ | 3820 ± 600 µM
U54C A64G | 0.016 ± 0.0067 s⁻¹ | 0.000616 ± 8.4e-05 s⁻¹ | 0.00156 ± 0.00033 s⁻¹ | 0.00883 ± 0.0018 s⁻¹ | 0.0287 ± 0.0082 s⁻¹ | 0.0123 ± 0.0031 s⁻¹ | 
U55G U57C | 0.000252 ± 3.3e-05 s⁻¹ | < 1e-05 s⁻¹ |  | 3.51e-05 ± 1e-05 s⁻¹ | 7.83e-05 ± 1.6e-05 s⁻¹ | 0.000174 ± 2.6e-05 s⁻¹ | 4830 ± 1100 µM
U54G G59C | < 1e-05 s⁻¹ |  |  | < 1e-05 s⁻¹ |  |  | 
C58A U65C | 6.66e-05 ± 7.6e-06 s⁻¹ |  |  |  |  | 4.42e-05 ± 2.2e-05 s⁻¹ | 5030 ± 1300 µM
C58A U65A | 1.58e-05 ± 1.9e-06 s⁻¹ |  |  |  |  |  | 
U57A C61G | 1.36e-05 ± 5.5e-06 s⁻¹ |  |  |  |  |  | 
A53C C70U | 0.00487 ± 0.0012 s⁻¹ | 0.000105 ± 1.2e-05 s⁻¹ | 0.000315 ± 2.6e-05 s⁻¹ | 0.000893 ± 0.00013 s⁻¹ | 0.00403 ± 0.0007 s⁻¹ | 0.00392 ± 0.00044 s⁻¹ | 2220 ± 670 µM
A53C U55G | 0.00572 ± 0.0016 s⁻¹ | 0.000162 ± 2.2e-05 s⁻¹ | 0.000551 ± 9.1e-05 s⁻¹ | 0.00138 ± 0.00025 s⁻¹ | 0.00261 ± 0.00039 s⁻¹ | 0.00667 ± 0.00076 s⁻¹ | 1640 ± 730 µM
U54G G60A | 2.28e-05 ± 5.4e-06 s⁻¹ |  | < 1e-05 s⁻¹ |  |  |  | 
A53U C70G | 0.000152 ± 2.3e-05 s⁻¹ | 8.15e-05 ± 2.5e-05 s⁻¹ | 6.88e-05 ± 7.7e-06 s⁻¹ | 0.000133 ± 1.5e-05 s⁻¹ | 0.000136 ± 2.3e-05 s⁻¹ | 0.000142 ± 2.6e-05 s⁻¹ | 168 ± 74 µM

Variant | kcat (glucosamine-6-phosphate [1]) | self-cleavage kobs at 40 uM GlcN6P (glucosamine-6-phosphate [2]) | self-cleavage kobs at 160 uM GlcN6P (glucosamine-6-phosphate [3]) | self-cleavage kobs at 640 uM GlcN6P (glucosamine-6-phosphate [4]) | self-cleavage kobs at 2500 uM GlcN6P (glucosamine-6-phosphate [5]) | self-cleavage kobs at 10000 uM GlcN6P (glucosamine-6-phosphate [6]) | KM (glucosamine-6-phosphate [7])
U55G C58G | 0.000161 ± 1.7e-05 s⁻¹ |  |  |  | 4.5e-05 ± 8.6e-06 s⁻¹ | 9.57e-05 ± 1.1e-05 s⁻¹ | 6790 ± 1400 µM
U55A C68A | 7.99e-05 ± 1.6e-05 s⁻¹ |  | 6.93e-05 ± 1.2e-05 s⁻¹ | 8.04e-05 ± 2.1e-05 s⁻¹ | 6.96e-05 ± 1.3e-05 s⁻¹ |  | 
U54C | 0.0582 ± 0.0055 s⁻¹ | 0.00101 ± 1.9e-05 s⁻¹ | 0.00345 ± 0.00027 s⁻¹ | 0.0121 ± 0.0007 s⁻¹ | 0.0274 ± 0.0017 s⁻¹ | 0.051 ± 0.0026 s⁻¹ | 2290 ± 240 µM
U54G | 0.0504 ± 0.0099 s⁻¹ | 0.00117 ± 3.8e-05 s⁻¹ | 0.00365 ± 0.00023 s⁻¹ | 0.0116 ± 0.00052 s⁻¹ | 0.0251 ± 0.0014 s⁻¹ | 0.0511 ± 0.0026 s⁻¹ | 1870 ± 470 µM
U54A | 0.0591 ± 0.015 s⁻¹ | 0.00106 ± 2e-05 s⁻¹ | 0.00285 ± 0.00013 s⁻¹ | 0.0124 ± 0.00049 s⁻¹ | 0.03 ± 0.0018 s⁻¹ | 0.0497 ± 0.0024 s⁻¹ | 2360 ± 680 µM
A53G G60A | 2.61e-05 ± 9.4e-06 s⁻¹ |  |  |  | 3.68e-05 ± 1e-05 s⁻¹ | 1.88e-05 ± 8.7e-06 s⁻¹ | 
U56A C71G | 0.00102 ± 0.00013 s⁻¹ | 5.19e-05 ± 8e-06 s⁻¹ | 0.000119 ± 1.8e-05 s⁻¹ | 0.000396 ± 4.5e-05 s⁻¹ | 0.000715 ± 9.6e-05 s⁻¹ | 0.000952 ± 0.0001 s⁻¹ | 1010 ± 210 µM
U54C C58U | 4.86e-05 ± 8.6e-06 s⁻¹ |  |  |  | 4.48e-05 ± 1.5e-05 s⁻¹ | 4.34e-05 ± 9.3e-06 s⁻¹ | 
C58G C61A | 1.85e-05 ± 4e-06 s⁻¹ |  |  |  |  |  | 
U56A U57C | 0.00014 ± 3.4e-06 s⁻¹ | < 1e-05 s⁻¹ |  |  | 7.84e-05 ± 1.5e-05 s⁻¹ | 0.000115 ± 1.5e-05 s⁻¹ | 2030 ± 160 µM
U55C A64C | 1.63e-05 ± 1.9e-06 s⁻¹ |  | < 1e-05 s⁻¹ |  |  |  | 
U54A U56A | 0.0109 ± 0.0014 s⁻¹ | 0.00022 ± 4e-05 s⁻¹ | 0.000706 ± 0.0002 s⁻¹ | 0.00224 ± 0.00048 s⁻¹ | 0.00712 ± 0.002 s⁻¹ | 0.00887 ± 0.0017 s⁻¹ | 2140 ± 380 µM
A53C A64U | < 1e-05 s⁻¹ | < 1e-05 s⁻¹ |  |  |  |  | 
A53C A64G | 0.00338 ± 0.00072 s⁻¹ | 7.76e-05 ± 1.7e-05 s⁻¹ | 0.000218 ± 9.8e-05 s⁻¹ | 0.00177 ± 0.00058 s⁻¹ | 0.00249 ± 0.0011 s⁻¹ | 0.00277 ± 0.00054 s⁻¹ | 1710 ± 540 µM
U55C C68U | 3.04e-05 ± 1.7e-06 s⁻¹ |  |  |  |  | 2.9e-05 ± 9.1e-06 s⁻¹ | 
A53G U55C | 0.0183 ± 0.0057 s⁻¹ | 0.000669 ± 7.9e-05 s⁻¹ | 0.00157 ± 0.00027 s⁻¹ | 0.00872 ± 0.0013 s⁻¹ | 0.0106 ± 0.0024 s⁻¹ | 0.0167 ± 0.0032 s⁻¹ | 1230 ± 510 µM
